Among the data in PMC2267099, “Inhibition of Horse Liver Alcohol Dehydrogenase by Methyltin Compounds” (Bioinorganic Chemistry and Applications, 2005) are Km values, retold here.

In general, Km refers to the substrate concentration at which the rate is half of its maximum.

Substrate in this data set: CCO
The data set is described as follows: purified protein. Type of data set: biochemical, Equus caballus. Conditions: no inhibitor, NAD+ 0.6 mM, pH 9.5 TRIS-HCl 0.05 M, room temperature.

B1: alcohol dehydrogenase from horse liver (HLADH) (Equus caballus) (protein)
chain: STAGKVIKCKAAVLWEEKKPFSIEEVEVAPPKAHEVRIKMVATGICRSDDHVVSGTLVTPLPVIAGHEAAGIVESIGEGVTTVRPGDKVIPLFTPQCGKCRVCKHPEGNFCLKNDLSMPRGTMQDGTSRFTCRGKPIHHFLGTSTFSQYTVVDEISVAKIDAASPLEKVCLIGCGFSTGYGSAVKVAKVTQGSTCAVFGLGGVGLSVIMGCKAAGAARIIGVDINKDKFAKAKEVGATECVNPQDYKKPIQEVLTEMSNGGVDFSFEVIGRLDTMVTALSCCQEAYGVSVIVGVPPDSQNLSMNPMLLLSGRTWKGAIFGGFKSKDSVPKLVADFMAKKFALDPLITHVLPFEKINEGFDLLRSGESIRTILTF
notes: commercial native enzyme from horse liver (Fluka AG), full length, used as received
For B1, the Km worked out at 46.7 ± 0.8 mM.
